Measurements from US20220227830A1, “QD DOSING OF GIP RECEPTOR AGONIST PEPTIDE COMPOUNDS AND USES THEREOF” (Takeda Pharmaceutical Company Limited, priority 2020, published 2022).
Numbering of substitutions follows the chain as printed. Starred links: 1 amine or outer side, 2 acyl side, 3 side chain; linkers in the order of their positions; H or OH if unused. Non-standard residues stand in square brackets, D forms with d. Groups on a side chain read outwards from the residue. No end group written: not given here. *: point of attachment. C16 diacid = O=C(O)CCCCCCCCCCCCCCC(=O)*; C15 diacid = O=C(O)CCCCCCCCCCCCCC(=O)*; γGlu = O=C(O)[C@H](CCC(=O)[*:2])N[*:1]; NMeY = CN[C@@H](Cc1ccc(O)cc1)C(=O)O; Palmitoyl = CCCCCCCCCCCCCCCC(=O)*; AEEA = NCCOCCOCC(=O)O; Aib = CC(C)(N)C(=O)O; C16 = lipid C16

What was measured:
[1] = target: T1, full-length human GIPR with an N-terminal FLAG tag, overexpressed on HEK-293T cells (human, UniProt P48546 22-466); assay: cell-based or functional assay
T1 sequence (looked up): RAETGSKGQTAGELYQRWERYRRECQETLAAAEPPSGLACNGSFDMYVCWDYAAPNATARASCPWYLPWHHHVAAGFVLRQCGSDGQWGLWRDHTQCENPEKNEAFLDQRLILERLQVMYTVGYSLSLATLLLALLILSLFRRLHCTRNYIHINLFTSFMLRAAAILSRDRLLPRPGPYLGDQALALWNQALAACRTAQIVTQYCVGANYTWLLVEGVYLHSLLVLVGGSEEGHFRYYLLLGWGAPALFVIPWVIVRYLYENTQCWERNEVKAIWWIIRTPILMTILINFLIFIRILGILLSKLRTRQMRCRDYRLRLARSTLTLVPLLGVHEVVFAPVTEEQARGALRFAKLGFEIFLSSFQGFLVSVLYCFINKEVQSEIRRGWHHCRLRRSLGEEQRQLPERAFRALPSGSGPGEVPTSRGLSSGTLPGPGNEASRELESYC

[2] = target: full-length human GLP-1R with an N-terminal FLAG tag, overexpressed on HEK-293T cells (human, UniProt P43220 24-463); assay: cell-based or functional assay

Binder: Me-YAEGTFISDYSIALDR[Aib]AQ[Aib]K([2OEG-γGlu-γGlu-C15 diacid])FVNWLLAQKG-OH [Compound 217]
- Human GIPR cAMP, HEK293T EC50 [1]: 0.0002 nM
- Human GLP1R cAMP HEK293T EC50 [2]: 4.9 nM

Binder: Me-Y[Aib]EGTFISDYSIALDR[Aib]K([AEEA-AEEA-γGlu-γGlu-C15 diacid])Q[Aib]NFVNWLLAQRG-OH [Compound 171]
- Human GIPR cAMP, HEK293T EC50 [1]: 0.0005 nM
- Human GLP1R cAMP HEK293T EC50 [2]: > 1000 nM

Binder: Me-Y[Aib]EGTFISDYSIALDR[Aib]AQ[Aib]K([2OEG-γGlu-C15 diacid])FVNWLLAQKG-OH [Compound 213]
- Human GIPR cAMP, HEK293T EC50 [1]: 0.0003 nM
- Human GLP1R cAMP HEK293T EC50 [2]: 17 nM

Binder: Me-Y[Aib]EGTFISDYSIALDR[Aib]HQ[Aib]NFVNWK([γGlu-C16])LAQR-NH2 [Compound 190]
- Human GIPR cAMP, HEK293T EC50 [1]: 0.0158 nM
- Human GLP1R cAMP HEK293T EC50 [2]: 1000 nM

Binder: Me-Y[Aib]EGTFISDYSIALDR[Aib]AQ[Aib]K([G5gEgE-C15 diacid])FVNWLLAQKG-OH [Compound 215]
- Human GIPR cAMP, HEK293T EC50 [1]: 0.0002 nM
- Human GLP1R cAMP HEK293T EC50 [2]: 45.7 nM

Binder: YGEGTFISDYSIAK([AEEA-AEEA-γGlu-C16 diacid])DRIHQQNFVNWLLAQK [Compound 192]
- Human GIPR cAMP, HEK293T EC50 [1]: 0.148 nM
- Human GLP1R cAMP HEK293T EC50 [2]: 741 nM

Binder: Y[Aib]EGTFISDYSIALDR[Aib]AQ[Aib]K([AEEA-AEEA-γGlu-γGlu-C15 diacid])FVNWLLAQKG-OH (not fully specified (residue 1)) [Compound 188]
- Human GIPR cAMP, HEK293T EC50 [1]: 0.0003 nM
- Human GLP1R cAMP HEK293T EC50 [2]: 22.9 nM

Binder: Me-Y[Aib]EGTFISDYSIALDR[Aib]AQ[Aib]K([2OEG-γGlu-γGlu-γGlu-C15 diacid])FVNWLLAQKG-OH [Compound 201]
- Human GIPR cAMP, HEK293T EC50 [1]: 0.0002 nM
- Human GLP1R cAMP HEK293T EC50 [2]: 9.12 nM

Binder: Me-Y[Aib]EGTFISDYSIALDR[Aib]AQ[Aib]K([2OEG-γGlu-γGlu-C15 diacid])FVNWLLAQKPSSGAPPPS-NH2 [Compound 209]
- Human GIPR cAMP, HEK293T EC50 [1]: 0.0003 nM
- Human GLP1R cAMP HEK293T EC50 [2]: 479 nM

Binder: Me-Y[Aib]EGTFISDYSIAK([Gly-Gly-Gly-Gly-γGlu-C15 diacid])DR[Aib]AQ[Aib]DFVNWLLAQKG-OH [Compound 180]
- Human GIPR cAMP, HEK293T EC50 [1]: 0.0003 nM
- Human GLP1R cAMP HEK293T EC50 [2]: > 1000 nM

Binder: Me-Y[Aib]EGTFISDYSIALDR[Aib]AQ[Aib]K([2OEG-γGlu-γGlu-C15 diacid])FVNWLLAQRG-OH [Compound 211]
- Human GIPR cAMP, HEK293T EC50 [1]: 0.0002 nM
- Human GLP1R cAMP HEK293T EC50 [2]: 174 nM

Binder: Me-Y[Aib]EGTFISDYSIALDR[Aib]AQ[Aib]K([2OEG-γGlu-γGlu-C15 diacid])FVNWLLAQKG-NH2 [Compound 205]
- Human GIPR cAMP, HEK293T EC50 [1]: 0.0002 nM
- Human GLP1R cAMP HEK293T EC50 [2]: 13.5 nM

B1: Compound 182 (peptide)
peptide: YXEGTFISDYSIXXDRXAQXDFVNWLLAQSPG
modifications: N-terminal Me (Me-Tyr1); Aib at 2, 13, 17, 20; Km = Lys(R) at 14, linker printed GS (read as G5 = GGGGG), lipid C15DA (C15 diacid); C-terminal OH
- Human GIPR cAMP, HEK293T EC50 [1]: 0.0002 nM
- Human GLP1R cAMP HEK293T EC50 [2]: 155 nM

B2: Compound 186 (peptide)
peptide: B1 peptide with X14L
modifications: N-terminal Me (Me-Tyr1); Aib at 2, 13, 20; Km = Lys(R) at 17, linker printed GS (read as G5 = GGGGG), lipid C15DA (C15 diacid); C-terminal OH
- Human GIPR cAMP, HEK293T EC50 [1]: 0.0003 nM
- Human GLP1R cAMP HEK293T EC50 [2]: 26.9 nM

Binder: Me-Y[Aib]EGTFISDYSI[Aib]LDR[Aib]AQ[Aib]K([AEEA-AEEA-γGlu-γGlu-C15 diacid])FVNWLLAQKG-OH [Compound 175]
- Human GIPR cAMP, HEK293T EC50 [1]: 0.0004 nM
- Human GLP1R cAMP HEK293T EC50 [2]: 44.7 nM

Binder: Me-Y[Aib]EGTFISDYSIAKDR[Aib]AQ[Aib]DFVNWLLAQRG-OH (not fully specified (residues 1, 14)) [Compound 173]
- Human GIPR cAMP, HEK293T EC50 [1]: 0.0005 nM
- Human GLP1R cAMP HEK293T EC50 [2]: > 1000 nM

B3: Compound 185 (peptide)
peptide: Me-Y[Aib]EGTFISDYSI[Aib]LDR[Aib]KQ[Aib]DFVNWLLAQSPG-OH
modifications: not fully specified (residues 1, 18); printed as Me-Tyr-Aib-Glu-Gly-Thr-Phe-Ile-Ser-Asp-Tyr-Ser-Ile-Aib-Leu-Asp-Arg-Aib-Lys(R)-Gln-Aib-Asp-Phe-Val-Asn-Trp-Leu-Leu-Ala-Gln-Ser-Pro-Gly-OH
- Human GIPR cAMP, HEK293T EC50 [1]: 0.0004 nM
- Human GLP1R cAMP HEK293T EC50 [2]: > 1000 nM

Binder: Me-Y[Aib]EGTFISDYSIAK([AEEA-AEEA-γGlu-C16 diacid])DRIAQ[Aib]NFVNWLLAQK [Compound 196]
- Human GIPR cAMP, HEK293T EC50 [1]: 0.0002 nM
- Human GLP1R cAMP HEK293T EC50 [2]: 692 nM

Binder: Me-YGEGTFISDYSIALDR[Aib]AQ[Aib]K([2OEG-γGlu-γGlu-C15 diacid])FVNWLLAQKG-OH [Compound 206]
- Human GIPR cAMP, HEK293T EC50 [1]: 0.0013 nM
- Human GLP1R cAMP HEK293T EC50 [2]: 145 nM

Binder: Me-Y[Aib]EGTFISDYSIALDR[Aib]KQ[Aib]DFVNWLLAQSG-OH (not fully specified (residues 1, 18)) [Compound 170]
- Human GIPR cAMP, HEK293T EC50 [1]: 0.0004 nM
- Human GLP1R cAMP HEK293T EC50 [2]: > 1000 nM

B4: Compound 187 (peptide)
peptide: YXEGTFISDYSIXXDRXAQXNFVNWLLAQSPSSGAPPPS
modifications: N-terminal Me (Me-Tyr1); Aib at 2, 13, 17, 20; Km = Lys(R) at 14, linker printed GS (read as G5 = GGGGG), lipid C15DA (C15 diacid); C-terminal OH
- Human GIPR cAMP, HEK293T EC50 [1]: 0.0002 nM
- Human GLP1R cAMP HEK293T EC50 [2]: 51.3 nM

Binder: Me-Y[Aib]EGTFISDYSIALDR[Aib]AQ[Aib]K([2OEG-γGlu-γGlu-C15 diacid])FVNWLLAQK-NH2 [Compound 210]
- Human GIPR cAMP, HEK293T EC50 [1]: 0.0003 nM
- Human GLP1R cAMP HEK293T EC50 [2]: 129 nM

Binder: Me-Y[Aib]EGTFISDYSIALDR[Aib]AQ[Aib]KFVNWLLAQKG-OH (not fully specified (residues 1, 21)) [Compound 212]
- Human GIPR cAMP, HEK293T EC50 [1]: 0.0002 nM
- Human GLP1R cAMP HEK293T EC50 [2]: 66.1 nM

Binder: Me-Y[Aib]EGTFISDYSIALDR[Aib]AQ[Aib]K([AEEA-AEEA-γGlu-γGlu-C15 diacid])FVNWLLAQSPG-OH [Compound 184]
- Human GIPR cAMP, HEK293T EC50 [1]: 0.0003 nM
- Human GLP1R cAMP HEK293T EC50 [2]: > 1000 nM

Binder: [NMeY][Aib]EGTFISDYSI[Aib]LDR[Aib]AQ[Aib]K([AEEA-AEEA-γGlu-γGlu-Palmitoyl])FVNWLLAQRG-OH (not fully specified (N-terminus)) [Compound 203]
- Human GIPR cAMP, HEK293T EC50 [1]: 0.003 nM
- Human GLP1R cAMP HEK293T EC50 [2]: 2.63 nM

B5: Compound 172 (peptide)
peptide: YXEGTFISDYSIAXDRXAQXDFVNWLLAQSG
modifications: N-terminal Me (Me-Tyr1); Aib at 2, 17, 20; Km = Lys(R) at 14, linker printed GS (read as G5 = GGGGG), lipid C15DA (C15 diacid); C-terminal OH
- Human GIPR cAMP, HEK293T EC50 [1]: 0.0004 nM
- Human GLP1R cAMP HEK293T EC50 [2]: 64.6 nM

B6: Compound 177 (peptide)
peptide: B5 peptide with R16S, S30K
modifications: N-terminal Me (Me-Tyr1); Aib at 2, 17, 20; Km = Lys(R) at 14, linker printed GS (read as G5 = GGGGG), lipid C15DA (C15 diacid); C-terminal OH
- Human GIPR cAMP, HEK293T EC50 [1]: 0.0002 nM
- Human GLP1R cAMP HEK293T EC50 [2]: 1000 nM

B7: Compound 181 (peptide)
peptide: B5 peptide with S30X
modifications: N-terminal Me (Me-Tyr1); Aib at 2, 17, 20; Km = Lys(R) at 14, linker printed GS (read as G5 = GGGGG), lipid C15DA (C15 diacid); K(Ac) (N-epsilon-acetyllysine) at 30; C-terminal OH
- Human GIPR cAMP, HEK293T EC50 [1]: 0.0004 nM
- Human GLP1R cAMP HEK293T EC50 [2]: 162 nM

Binder: Me-Y[Aib]EGTFISDYSI[Aib]LDR[Aib]AQ[Aib]K([AEEA-AEEA-γGlu-γGlu-C15 diacid])FVNWLLAQSPG-OH [Compound 183]
- Human GIPR cAMP, HEK293T EC50 [1]: 0.0005 nM
- Human GLP1R cAMP HEK293T EC50 [2]: 89.1 nM

Binder: Me-Y[Aib]EGTFISDYSIALDR[Aib]AQ[Aib]K([2OEG-C15 diacid])FVNWLLAQKG-OH [Compound 218]
- Human GIPR cAMP, HEK293T EC50 [1]: 0.0006 nM
- Human GLP1R cAMP HEK293T EC50 [2]: 89.1 nM

Binder: Me-Y[dA]EGTFISDYSIALDR[Aib]AQ[Aib]K([2OEG-γGlu-γGlu-C15 diacid])FVNWLLAQKG-OH [Compound 216]
- Human GIPR cAMP, HEK293T EC50 [1]: 0.0003 nM
- Human GLP1R cAMP HEK293T EC50 [2]: 34.7 nM
